Test results published in patent US20230151073A1, “FIBRILLATION RESISTANT CALCITONIN PEPTIDES AND USES THEREOF” (Purdue Research Foundation, priority 2020, published 2023).

What was measured:
[1] = Fibrillation kinetics by Thioflavin-T (ThioT) fluorescence measurement; type: physicochemical; conditions: 100 μM peptide
Procedure: The fibrillation kinetics of hCT, rhCT and phCT was monitored by measuring the increase in fluorescence intensity upon thioflavin T (ThioT) binding to peptide fibrils. The ThioT stock solution (2.5 mM) was prepared in di-water and diluted 10-fold with buffer to give a working solution (250 μM). […] The peptide solution was quickly transferred to a 96-well microtiter plate and placed in a Synergy Neo2 Multi-Detection microplate reader (BioTek Instruments, Winooski, Vt.). 5 μL of ThioT working solution (250 μM) was added to 245 μL of peptide solution in each well to give a final ThioT concentration of 5 μM per well. At each time point, six replicate measurements were performed for each sample. Fibrillation was carried out for 12 or 24 h at 25° C. with continuous shaking at 731 cpm. The fluorescence intensity of ThioT was bottom-read at an interval of 10 or 15 min, at excitation and emission wavelengths of 440 nm and 482 nm, respectively.
The ThioT fluorescence data were fitted to the Boltzmann sigmoidal function as given below, using GraphPad Prism version 7.03 (GraphPad Software, La Jolla, Calif.).
where A1 is the minimum signal, A2 is the maximum signal, xo is the time at which the change in signal is 50% (t50) and dx′ is the slope of growth phase.^1 The lag time was determined either by sigmoidal fit to the fibrillation kinetics curve or using onset point determination. In sigmoidal fits, the lag time was determined as xo−2 dx′ using parameters obtained from nonlinear fit of the data to Eq. 1. […] In cases where sigmoid curve fitting could not be achieved, the t50 was estimated from the raw data as the time when the signal intensity reached half of the observed maximum value.

[2] = Secondary structure change during fibrillation by CD spectroscopy; type: physicochemical; conditions: 0 to 1440 min, 100 μM peptide, pH 7.4, 25° C., 731 cpm
Procedure: Changes in the secondary structure of hCT and phCT were monitored by CD spectroscopy using a Jasco J-815 spectrometer (JASCO Analytical Instruments, Easton, Md.). […] At predetermined time intervals, samples were withdrawn for CD analysis. CD spectra were recorded in a quartz cuvette with 1 mm pathlength, scanned from 190 nm to 260 nm in the far UV range, at a scan speed of 50 nm/min at 20° C. Each spectrum was reported as an average of three scans.

[3] = Fibrillation kinetics by turbidity measurement (UV absorbance at 340 nm); type: physicochemical; conditions: 100 μM peptide, 731 cpm
Procedure: Fibrillation kinetics of hCT, rhCT and phCT was followed by measuring the increase in solution turbidity due to formation of soluble oligomeric species and insoluble fibrils. […] At each time point, six replicate measurements were performed for each sample. Fibrillation was carried out for 12 or 24 h at 25° C. with continuous shaking at 731 cpm. Solution turbidity was measured by UV absorbance at 340 nm at 10 or 15-min read intervals. The turbidity data was fitted to the Boltzmann sigmoidal function (Eq. 1) and analyzed as described above.

[4] = Visual inspection of 96-well plates after fibrillation; type: physicochemical; conditions: after fibrillation in 96-well plates, 24 h
[5] = 20 mM sodium phosphate buffer pH 7.4, 25° C., continuous shaking at 731 cpm, n=6, mean±SD
[6] = after 360 min of fibrillation time
[7] = after 1440 min of fibrillation, pepsin digestion
[8] = 20 mM sodium phosphate buffer pH 7.4, 25° C., n=6, mean±SD

human calcitonin [hCT]
lag time of fibrillation, ThioT fluorescence [1, 5]: 172 ± 15 min
t50 of fibrillation, ThioT fluorescence [1, 5]: 236 ± 8 min
lag time of fibrillation, ThioT fluorescence ([1]; 20 mM sodium phosphate buffer pH 7.4, 25° C., continuous shaking at 731 cpm, n=6, mean±SD, listed as native hCT): 172 ± 15 min
change in ThioT fluorescence with time ([1]; pH 7.4, 25° C., 731 cpm): an increase in ThioT fluorescence was observed
deuterium incorporation, fragment 1-8 [6]: 16%
deuterium incorporation, fragment 1-11 [6]: 13%
deuterium incorporation, fragment 12-19 [6]: 22%
percent deuterium uptake, intact level (after 1440 min of fibrillation): 28%
deuterium uptake, fragment 20-32 [7]: 51%
deuterium uptake, fragment 26-32 [7]: 54%
% D (percent deuterium uptake), intact level, Peak II (fibrillation time t=0 min): 68%
deuterium uptake, C-terminal fragments 20-32 and 26-32, initial value (start of fibrillation): ~60%
change of CD signal during fibrillation [2]: complete loss in signal
lag time of fibrillation, turbidity [3, 8]: 198 ± 20 min
t50 of fibrillation, turbidity [3, 8]: 257 ± 15 min
change in turbidity signal ([3]; pH 7.4, 25° C.): An increase in solution turbidity was also observed
appearance on visual inspection [4]: solid dense deposits
